Test results reported in the supplement of paper PMC12764529.
± gives the half width of the 95% confidence interval.

What was measured:
[1] = folding stability dG unfold from trypsin proteolysis; higher = more stable
In short: (§1)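 How resistant each design was to proteolysis was captured as K50, inferred by Bayesian fitting of sequencing counts. Unfolding free energy was then derived relative to a sequence-predicted unfolded-state K50 and a shared folded-state K50, per protease or combined. Digestion used trypsin and chymotrypsin at 11 threefold-diluted concentrations plus a no-protease condition, on mini-proteins under 80 residues without cysteine in a PA-tagged cDNA display construct. Designs were kept only when AlphaFold2 dimer inter-PAE was above 15.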

[2] = folding stability dG unfold from chymotrypsin proteolysis; higher = more stable
In short: as §1

[3] = folding stability dG unfold (combined trypsin and chymotrypsin); higher = more stable
In short: as §1

Sequence | folding stability dG unfold [1] | folding stability dG unfold [2] | folding stability dG unfold [3]
SAGGSAGGSAGNKPVTVRFTIKIPLPNGKKLEIPVEVTYDSPEDRDRAEKEAEEIAREFLSAGGSAGGSAGG [r17_510_TrROS] | 1.5 ± 0.057 kcal/mol | 1.11 ± 0.098 kcal/mol | 1.36 ± 0.097 kcal/mol
SAGGSAGGMIVTTTFLPGNLKVVNVTTTYETTDPSGTTTSTTTTSTTIEYIPPVPVDINNPLLISAGGSAGG [r6_920_JUSTAS] | 1.41 ± 0.071 kcal/mol | 1.24 ± 0.038 kcal/mol | 1.41 ± 0.14 kcal/mol
SAGGMKVRVRLPDGTEVELEVTEVTVSTDPSTGTPVYTITLANGEKLTVTVPVDKPVRPGETVTVTPESAGG [r13_390_JUSTAS] | 3.72 ± 0.056 kcal/mol | 3.71 ± 0.053 kcal/mol | 3.81 ± 0.056 kcal/mol
SAPLTPEEAEEWAETLADELADKAGIPNVEIKVEPSPDGYWTAEIRFPNNGKKIRITWENGRPKITEIESAG [r14_925_TrROS] | 2.84 ± 0.2 kcal/mol | 2.63 ± 0.093 kcal/mol | 2.74 ± 0.16 kcal/mol
SAGGSKDLEIKITKIKEWDPPNGKQTIRIPIEVYDPENGKPRPPAEELADELQKRFPGMPIKVEPVSAGGSA [r2_27_TrROS] | -0.416 ± 0.29 kcal/mol | 0.863 ± 0.028 kcal/mol | 0.441 ± 0.14 kcal/mol
SAGGSPVLKVEVFELEEDKLLLKIYFPKEEAGLTPEQKEALAKAIQELFPNTKAFTTDEELYIVVDSAGGSA [r2_256_TrMRF] | 2.06 ± 0.075 kcal/mol | 2.38 ± 0.15 kcal/mol | 2.37 ± 0.12 kcal/mol
SAGGKKHYLVKVKATLTDKNGKKIAEVEFIFHFESPEELEEALKSIPSKYITEVKILSIEEIPEEEFSAGGS [r16_677_TrMRF] | 3.36 ± 0.18 kcal/mol | 3.65 ± 0.091 kcal/mol | 3.55 ± 0.18 kcal/mol
SAGGSAGGSAGGKVAIVTASPEKAKEIAKKAGIKDVIIIPKNKPELLGPNVDKVILVAEKSAGGSAGGSAGG [r7_381_TrMRF] | -0.629 ± 0.066 kcal/mol | -1.94 ± 0.33 kcal/mol | < -1 kcal/mol
SAGGSAGGSATVTVERVGNRLLLSFPDGSYYVAELPGEAEVDLASGKITLPANSRVEPVPLERSAGGSAGGS [r20_158_TrMRF] | 0.0598 ± 0.02 kcal/mol | 1 ± 0.015 kcal/mol | 0.743 ± 0.029 kcal/mol
SAGSMHLVEFTGTEEVVDEFLASLPPEVVVERERYPDRWLVRLPPDVPARTITVPTPDGRPVTFTLRLESAG [r5_123_JUSTAS] | -0.851 ± 0.41 kcal/mol | -0.346 ± 0.31 kcal/mol | -0.487 ± 0.21 kcal/mol
SAGGSAGGGRAEILVEPVEPEPRARVVIRLEGSGRLVVFPVEEPLEPEHVEEAVEAAIKALEENSAGGSAGG [r6_330_TrMRF] | -0.26 ± 0.17 kcal/mol | 0.647 ± 0.013 kcal/mol | 0.393 ± 0.065 kcal/mol
SAGGSAGGSAGGVPRLERFTLSPNGLPVRIFVDGDRALVVFEGPDGGLAVATFAVSDIPFSAGGSAGGSAGG [r7_653_TrMRF] | 0.857 ± 0.03 kcal/mol | 1.62 ± 0.047 kcal/mol | 1.31 ± 0.064 kcal/mol
SAGGSAGGSSMTFEVVEIERPPGDEIRVLVKREDGREFAEITLPPGASPEEIERAVREAVEAESAGGSAGGS [r12_798_JUSTAS] | 0.707 ± 0.07 kcal/mol | 1.55 ± 0.057 kcal/mol | 1.26 ± 0.28 kcal/mol
SAGKKIDPEALAKRILKEFGLPEDAEVEVEEIENTYIARFPEATALFTIEDDEVTVFLAPARPEPELAGSAG [r5_190_TrMRF] | 0.984 ± 0.11 kcal/mol | 0.598 ± 0.18 kcal/mol | 0.881 ± 0.18 kcal/mol
SAGGNKATLTVSEDNYPVLLLELYAPDGELIATAPVLLDPEKGGLTAADLERLLKEIDVPPDVEVNIASAGG [r13_479_TrMRF] | 1.21 ± 0.096 kcal/mol | 1.36 ± 0.037 kcal/mol | 1.32 ± 0.091 kcal/mol
SKKVTIMIMIRRRDPEDGKYRPIPPEFILEMVRRARKKGKKVKITFMNPDNPWAKRLAKRAKEEGIKIEWSA [r9_468_TrROS] | 2 ± 0.05 kcal/mol | 2.1 ± 0.14 kcal/mol | 2.1 ± 0.11 kcal/mol
MRFEFPLEDGGRVEVEMRPLPDGPVVLDVKITLPNGEEITIPFVFPREEFPDMDMEEIARRVVEEAIRLAKS [r1_92_TrMRF] | 3.463 ± 0.033 kcal/mol | 5.035 ± 0.038 kcal/mol | 4.77 ± 0.058 kcal/mol
SAGGKPPGLSEIPLPDNKTEKVPVNSDIVLKRPDGTELKYKLPPEPVTTEKNKYTIKLPNGEITIPINSAGG [r13_643_JUSTAS] | -1.03 ± 0.26 kcal/mol | -0.0683 ± 0.26 kcal/mol | -0.0992 ± 0.32 kcal/mol
SAMMYLIRVTITVKNKETGEEKEIEVEILIEKEEGELTEEEIEELARKLAEELGLEVEEIKIEIEPLPESAG [r14_278_TrROS_Hall] | 4.34 ± 0.2 kcal/mol | 5.28 ± 0.16 kcal/mol | 5.3 ± 0.24 kcal/mol
SAMSLTIETDGSLEDVIAALKAFLEANPNVPFIISPPNGEVKVIDLGLADKILVIPDPDGKVRITVINPSAG [r14_807_TrMRF] | 1.76 ± 0.023 kcal/mol | 1.7 ± 0.024 kcal/mol | 1.75 ± 0.036 kcal/mol
SAGGSAGGMKTVEIEVTVKTPDGKEVKIKKARIEYDKETKTFHLYFENEETGEWYEVDEIKLKDSAGGSAGG [r6_329_TrROS_Hall] | 1.96 ± 0.085 kcal/mol | 2.69 ± 0.18 kcal/mol | 2.71 ± 0.2 kcal/mol
